Laboratory results as given in article PMC7801609, “Isolation of MERS-related coronavirus from lesser bamboo bats that uses DPP4 and infects human-DPP4-transgenic mice” (Nature Communications, 2021).

Experiments:
Assay in all cases: SPR; BIAcore X100, CM5 chip, 25 °C; […]; HBS-P+ buffer ([…]
[1] = biological target: HKU4-RBD fused to a C-terminal His-tag (Tylonycteris-bat-CoV-HKU4) (UniProt A3EX94)
[2] = biological target: MERS-RBD fused to a C-terminal His-tag (MERS-CoV) (UniProt K9N5Q8)
[3] = biological target: peptidase domain of hDPP4 (residues 39-766) fused to a C-terminal His-tag (human, UniProt P27487 39-766); conditions: both partners purified
peptidase domain of hDPP4 (residues 39-766) fused to a C-terminal His-tag (human, UniProt P27487 39-766), sequence (P27487 39-766): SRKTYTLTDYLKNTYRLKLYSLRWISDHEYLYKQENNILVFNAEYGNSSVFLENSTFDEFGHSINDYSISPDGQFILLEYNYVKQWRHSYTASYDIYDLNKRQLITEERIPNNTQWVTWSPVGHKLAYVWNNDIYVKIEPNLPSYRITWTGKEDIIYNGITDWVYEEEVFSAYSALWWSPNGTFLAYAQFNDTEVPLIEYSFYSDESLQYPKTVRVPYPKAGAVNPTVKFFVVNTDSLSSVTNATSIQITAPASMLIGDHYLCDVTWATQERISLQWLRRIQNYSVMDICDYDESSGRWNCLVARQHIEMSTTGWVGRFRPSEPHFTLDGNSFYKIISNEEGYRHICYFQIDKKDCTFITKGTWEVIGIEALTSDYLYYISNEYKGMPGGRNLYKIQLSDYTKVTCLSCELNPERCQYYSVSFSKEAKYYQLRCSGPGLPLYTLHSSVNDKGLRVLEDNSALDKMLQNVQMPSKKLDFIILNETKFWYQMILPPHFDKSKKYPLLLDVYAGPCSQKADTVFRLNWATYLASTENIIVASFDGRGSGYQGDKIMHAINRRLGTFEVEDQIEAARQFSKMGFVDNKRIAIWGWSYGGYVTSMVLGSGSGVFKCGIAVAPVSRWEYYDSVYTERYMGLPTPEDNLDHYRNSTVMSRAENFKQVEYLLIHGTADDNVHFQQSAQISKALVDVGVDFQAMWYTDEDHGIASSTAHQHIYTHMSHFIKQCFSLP

peptidase domain of TpDPP4 (residues 37-764) fused to a C-terminal His-tag (domain or fragment)
Kd [1]: 2580 nM

peptidase domain of dcDPP4 (residues 39-765) fused to a C-terminal His-tag (domain or fragment)
Kd [1]: > 47700 nM
Kd [2]: > 18.7 µM

peptidase domain of hDPP4 (residues 39-766) fused to a C-terminal His-tag (from UniProt P27487 39-766) (domain or fragment)
Kd [1]: 1100 nM

B1: MERS-RBD fused to a C-terminal His-tag (domain or fragment)
chain: EAKPSGSVVEQAEGVECDFSPLLSGTPPQVYNFKRLVFTNCNYNLTKLLSLFSVNDFTCSQISPAAIASNCYSSLILDYFSYPLSMKSDLSVSSAGPISQFNYKQSFSNPTCLILATVPHNLTTITKPLKYSYINKCSRFLSDDRTEVPQLVNANQYSPCVSIVPSTVWEDGDYYRKQLSPLEGGGWLVASGSTVAMTEQLQMGFGITVQYGTDTNSVCPKLEFANDTKIASQLGNCVEY
Kd [3]: 632 nM
